Paper PMC3983572

Molecular target: protein interacting with C kinase 1 (PICK1), recombinant full-length (UniProt Q9EP80)
Assay: fluorescence polarisation

Chain of UniProt Q9EP80 (Q9EP80 whole entry): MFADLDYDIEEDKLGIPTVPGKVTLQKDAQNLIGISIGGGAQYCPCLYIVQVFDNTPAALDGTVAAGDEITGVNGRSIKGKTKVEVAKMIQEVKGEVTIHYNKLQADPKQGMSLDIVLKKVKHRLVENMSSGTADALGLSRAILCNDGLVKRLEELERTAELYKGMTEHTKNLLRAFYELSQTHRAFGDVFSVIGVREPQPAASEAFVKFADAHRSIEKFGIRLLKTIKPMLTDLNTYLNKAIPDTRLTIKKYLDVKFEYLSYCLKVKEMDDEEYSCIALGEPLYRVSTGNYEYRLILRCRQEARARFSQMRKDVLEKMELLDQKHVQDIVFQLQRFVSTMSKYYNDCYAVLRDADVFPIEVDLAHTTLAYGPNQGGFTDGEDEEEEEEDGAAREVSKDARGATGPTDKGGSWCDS

unlabeled GluA2 peptide
Ki: 24 µM
